Sequences and labels used below:
B2: recombinant human GDF5 variant W414R (ligand, UniProt P43026 28-501, looked up)
chain: APLATRQGKRPSKNLKARCSRKALHVNFKDMGRDDWIIAPLEYEAFHCEGLCEFPLRSHLEPTNHAVIQTLMNSMDPESTPPTCCVPTRLSPISILFIDSANNVVYKQYEDMVVESCGCR
notes: Growth and Differentiation Factor 5 (GDF5), human, recombinant protein with the patient mutation p.W414R; The mutation was found in a family with SYNS2 and BDA1 (c.T1240C); also called rhGDF5^W414R; GDF5^W414R; source: recombinant, provided by Biopharm GmbH, dissolved in 10 mM HCl

Holding throughout (test): SPR; BIA2000 system (Biacore); NOG and ectodomains of BMPR1A and BMPR1B immobilised, GDF5 proteins as analyte; apparent KD; mean of two experiments with at least six analyte concentrations
Common to all, as to conditions: both partners purified
(Surface plasmon resonance follows binding to a sensor surface in real time, without labels.)

One test concerns the target T1, NOGGIN (NOG) (UniProt Q13253 28-232).
T1 construct: NOGGIN (NOG), BMP antagonist
T1 sequence (looked up): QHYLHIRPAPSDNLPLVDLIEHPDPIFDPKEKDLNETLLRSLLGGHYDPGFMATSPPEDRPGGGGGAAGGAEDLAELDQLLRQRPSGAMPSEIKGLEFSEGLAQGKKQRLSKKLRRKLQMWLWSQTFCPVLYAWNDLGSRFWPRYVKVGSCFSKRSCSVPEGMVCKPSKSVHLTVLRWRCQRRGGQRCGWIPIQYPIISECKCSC

The target of test [1] is T2, BMP receptor type IA (BMPR1A) ectodomain (UniProt P36894 24-152).
T2 construct: BMP receptor type IA (BMPR1A), ectodomain
T2 sequence (P36894 24-152): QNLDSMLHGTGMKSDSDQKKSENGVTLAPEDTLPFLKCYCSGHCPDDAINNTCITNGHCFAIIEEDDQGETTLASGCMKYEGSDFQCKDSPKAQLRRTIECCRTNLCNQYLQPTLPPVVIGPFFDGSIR

Test [2] deals with B2.

B1: recombinant human GDF5 (Growth and Differentiation Factor 5), wild type (ligand, UniProt P43026 28-501, looked up)
chain: APLATRQGKRPSKNLKARCSRKALHVNFKDMGWDDWIIAPLEYEAFHCEGLCEFPLRSHLEPTNHAVIQTLMNSMDPESTPPTCCVPTRLSPISILFIDSANNVVYKQYEDMVVESCGCR
notes: Growth and Differentiation Factor 5 (GDF5), human, recombinant protein; also called rhGDF5; GDF5^wt; source: recombinant, provided by Biopharm GmbH, dissolved in 10 mM HCl
Take B1: the Kd with NOGGIN (NOG) amounted to 2 nM.
Turning to B2, the Kd in test [1] is 124 nM; with NOGGIN (NOG), 25.5 nM.

B3: BMP receptor type IB (BMPR1B) ectodomain (domain or fragment, UniProt O00238 14-126, looked up)
chain: KKEDGESTAPTPRPKVLRCKCHHHCPEDSVNNICSTDGYCFTMIEEDDSGLPVVTSGCLGLEGSDFQCRDTPIPHQRRSIECCTERNECNKDLHPTLPPLKNRDFVDGPIHHR
notes: BMP receptor type IB (BMPR1B), ectodomain
Turning to B3, the Kd in test [2] was determined as 3.3 nM.

The values above are taken from article PMC3789827, “A GDF5 Point Mutation Strikes Twice - Causing BDA1 and SYNS2” (PLoS Genetics, 2013).
